The values below come from US20160017022A1.

The target in the assay is EGFP-MAL stably expressed on CHO cells. Briefly: FACS, CHO cells stably expressing EGFP-MAL. (In general: A flow cytometer gives signals particle by particle.)

“fluorescently labeled ETX (ETX^Alexa-647) (from UniProt Q02307 33-328) (ligand)” had a double labeling of EGFP-MAL expressing cells of 100%.
